Test results as given in the DeepSol protein solubility set.

assay: soluble on expression in E. coli; label from the status in PepcDB or PDB records

Soluble on expression in E. coli, not soluble:
MGSDKIHHHHHHMSERPTLHVVSLSGGKDSTATLCVALEQHGSENVRAVMADTGNEDEQNLEYALDYLPRALGIPVDVVRADFTDEFATKRANLARIAAGEPESAVYGKREFMYRWTPEAAARALEVLHPTGIPFLDLCLVRGGFPSRKRQFCTQYLKTEQLVGYALREIDRGYAVWSWQGVRIDESDSRRERLQGTGACVKAFEVVGGGLFNYRPILRWSAADVFEAHAAAGIRPNPLYRQGMSRVGCMPCINAGKLELREIARRFPEHVERIAEWERLVSEVCRPGSPVSFFHQGTTGHTGQASTIWKVVDWSKTSRGGRQYDLLADAEPATACSSAYGLCE, MGSDKIHHHHHHMSFTTWTPPAVASERQPFALTLWRAVEAQHVVSTMPLVDSLDEQAVLEAVLDAGKPAVPAEARHLHYLLFTPFRYPPSPWGSRFRAGQDPGVFYGAEEIRTACAELGYWRWRFLNDSPALPRIDARAQTLFQVSVRTEGVALDTPPFDRDSAQWTDPDSHEACQAFGRIAREAGIGLIRYTSVRDPGHGPCGAVMTPRAFDHPLPLATTTWMLTVRRDRVIWQRDDLQQRDSFEFAASLWQRTSERSPEG, MGSDKIHHHHHHMSHLLKPKPNLLLIDDDEDVLDACRQLFNLSGYQVRATNSPQKALEALSRDWDGVVISDIYMPAMHGLDLLAAVHHIDPQIPVIMITGHADIPLAVKAVKQGAADFIEKPLDPPTFLALVKKAATQRHQLIGQRQNIQDSLAGQLLGSSAQINDLREQLGQLALTDRDVMLEGPRGVGRNTLAALLHKLGPRAEGPLQQLECALVESPEKLQQAVDASRGGTLILRELEHLPTDSQRWLASFLLDQERRGNKEVRTIAILESQPETLVQEQTLTPECFYYFSQVRLRLPALCERPSDIVPLFMAFLKESCRRLSRKMPTVENRYLDNLKQHSWPGNVRELRNVAELYAVGIVKLANVQRIAAAPSVKGPLDELVDDYEKRLIEDALFLFSGRVSEAADYLNVPRKKLYLRMKKYGLDKECFKPVKPGRG, MGSDKIHHHHHHMSHNIKYRQLKAFRILAESGSFKHAADSLAVTQPSMSIMIRELESDLGVALIDRATRSAELTDAGRDFYQQIKGSLDQLEKAYSYANAAGKAEHGRVRIATLTSLAAEAVTTAIARMHAERPGIQIELMERTYFLALRRREVDLGVGILHEAHADLDFQYLFSDQLVVVTPKGHPLARQRQPLKHLGKYDVVVVSPGPSLEALQELDADCAPPVQVEQPSTAITMVRKGLGVTVTSSSATTGLDMRGLAAVPIPGTTRDVGVITLAQARLSPVASAFLRCLRHVHPAG, MGSDKIHHHHHHMSHSLTSVFQKIDSLKPQFFSRLTKAIQIPAVSSDESLRSKVFDKAKFISEQLSQSGFHDIKMVDLGIQPPPISTPNLSLPPVILSRFGSDPSKKTVLVYGHYDVQPAQLEDGWDTEPFKLVIDEAKGIMKGRGVTDDTGPLLSWINVVDAFKASGQEFPVNLVTCFEGMEESGSLKLDELIKKEANGYFKGVDAVCISDNYWLGTKKPVLTYGLRGCNYYQTIIEGPSADLHSGIFGGVVAEPMIDLMQVLGSLVDSKGKILIDGIDEMVAPLTEKEKALYKDIEFSVEELNAATGSKTSLYDKKEDILMHRWRYPSLSIHGVEGAFSAQGAKTVIPAKVFGKFSIRTVPDMDSEKLTSLVQKHCDAKFKSLNSPNKCRTELIHDGAYWVSDPFNAQFTAAKKATKLVYGVDPDFTREGGSIPITLTFQDALNTSVLLLPMGRGDDGAHSINEKLDISNFVGGMKTMAAYLQYYSESPEN, MGSDKIHHHHHHMSHTLYEASVIRVQRCELAVPGSNPGMFEKALKSGVDFVFLDLEDAVAPDDKLTARKNVIEALNDLDWRGHGVTVSVRINGLDTQFMVRDVVDVVEKAGHKLDTILIPKVGVYSDVYMVEAMLNQLEMQQGLKNRIGIEALIETALGMANVEDIARHGVRGRLEALHFGVADYAASNRARTTNIGGLNPDYPGDQWHAAISRMTVACRAYGLRPIDGPFGDIQDPEGYKAAARRAAALGCEGKWAIHPSQIDLANEVFTPPPSEVEKAQRILAALQEAAAQGKGAAALDGRLIDAASARMANNVVKMAEAIGATAT, MGSDKIHHHHHHMSHWFFIINPTAGHRNGLRVWKSIQKELIKRKVEHRSFLTEHPGHAEVLARQISTIQEYKLKRLIVIGGDGTMHEVVNGLKDVDDIELSFVPAGAYNDFSRGFSIKKIDLIQEIKKVKRPLTRTFHLGSVNFLQDKSQILYFMNHIGIGFDAYVNKKAMEFPLRRVFLFLRLRFLVYPLSHLHASATFKPFTLACTTEDETREFHDVWFAVVSNHPFYGGGMKAAPLANPREKTFDIVIVENQPFLKKYWLLCLMAFGKHTKMDGVTMFKAKDITFYTKDKIPFHADGEIMGTTPFRLASSPSPLRIKT, MGSDKIHHHHHHMSIAVTTTDPTNTGVSTTSSSSLTGSNAADLQSSFLTLLVAQLKNQDPTNPMENNELTSQLAQISTVSGIEKLNTTLGSISGQIDNSQSLQASNLIGHGVMIPGTTVLAGTGSEEGAVTTTTPFGVELQQAADKVTATITDKNGAVVRTIDIGELTAGVHSFTWDGTLTDGSTAPNGSYNVAISASNGGTQLVAQPLQFALVQGVIRGNSGNTLDLGTYGTTTLDEVRQII, MGSDKIHHHHHHMSIKLDHRLLYLRVIEKIKSDIDDGVYKEGEKLPSEFELSKQLGVSRATLREALRILEDENIVIRKHGVGTFINARPPFTSGIEELYSVTEMIARAGMIPTSEVLSSEMVQPTERDRERFQLGPDELVYRIERIRLAGDVPVVYCVDKIPSHYIKNEEQFTSSTSLFDALEKELGRRVTHAVTHIEPRIDPKIAEQLHTDQPLLVLRQTHYDELDRSVLYSANYFRADKFDFHVIRKRV, MGSDKIHHHHHHMSILNVEHLSHGFGDRAIFEDVSFRLLKGEHIGLVGANGEGKSTFMNIITGRLMPDEGKIEWAKKVRVGYLDQHTALEKGMTIGSVLSSAFDFLYDMENEMNDIYARLGDVDEDEMNKLMEEAGTIQDMLTMHDFYMIDAKVEEVARALGLLDLGLDKDVTDLSGGQRTKVLMGKLLLEKPDILLLDEPTNYLDVEHIEWLKRYLNDYENAFILISHDIPFLNSVVNLIYHMDNKKLDRYVGDYDKFMEVYEMKKAQLEAAYNKQQQEIKELKDFVARNKARVATRNMAMSRQKKLDKMDVIELAAEKPKPEFNFKTARTPGRYIFQTNGLVIGYDDPLSSALDLEMERGQKIVLTGANGIGKTTLLKSILGLIKPLSGSVTLGDYLEIGYFEQEMDQSVTTTCIEEIWNEFPAFSQYEVRSALAKCGLTTKHIESQVRVLSGGEQAKVRLCKLINRETNILLLDEPTNHLDVDAKDELKRALKEYKGSILMVCHEPDFYDGLATDVWDCSKWTTRL, MGSDKIHHHHHHMSIMNSLLQQKETVVKGWLTYYVSVDDPYVFALKDDHRLMDETGFVLENLFIGMTEDLAKMNTFARELGKAQFITSLGISRILFHIRLLEEFLLDYASEINAECNNYRELYLFSIKLHQVFSSFTQHLIEGYTLATEQLVQQKENQIIKSSTKLIWLAEKVFLLPLIGKITDERAKQITETALFETCEQPVNYLIIDLSGVQFDSANIGEYIEHFFSSLKLVGVTPIITGMQPETAKIMVQANLTEQKGIKTFATLRQATKSLIKEKEARNAIK, MGSDKIHHHHHHMSINVLIVDDSLSACRVLSRHFLLLDVDKVEFCRDARSAIRTLSKYSDDYQIVVVDLHMPEVDGIEFLMRLSKMEFKGGIIIASGMESRIVEAASQLVEASKLRLLGALMKPVTTEQLRVCVERYRLMAFQGNGVRHKGLMSIDEIRRAINSNKIIPYYQAQVDIASGKIKGFEVLCRLQQGTRLQLITPDKFIDVAECNNALNSLTTKLLNNAIPEWALISQFESCKQCHLSINLTPKQLNQSGWHTRLMQYCEQNLLSPSRLTVEITENQVLDKQRQHSTISQLRMNRIGVAIDDFGTGYTNLSQLCTLPISELKLDRSLVHGIHKDPVSQTILKSMQAISGKLGIHLVAEGVEDIHDLNYLEQIEDISLQGYLICRPKPYSELVRWLKARERLVQA
